Source: article PMC9213720 (iScience, 2022)

Target: the molecule itself

B1: zSIGIRR-TIR (domain or fragment)
chain: KMYDAYISYVNNENDRKFVNFILKPHLENKYSHKLLLNNTNILPGAEPSAELLMNISRCQRLIVVLSQSYLEQEWCTTNFRQGLWHLIELSRKPIFIIFQSQQKQISQDISQQLRQHQPCITMITWGAHSMTPSSGFWKELALVMPRK
B1 was tested, and the “stoichiometry N” value was 2.
